The text below walks through data of paper PMC11240982, “Recapitulation of HIV-1 Neutralization Breadth in Plasma by the Combination of Two Broadly Neutralizing Antibodies from Different Lineages in the Same SHIV-Infected Rhesus Macaque” (International Journal of Molecular Sciences, 2024).

In this assay the target is T1, BG505 Env UFO (uncleaved prefusion-optimized) trimer with Avi tag (HIV-1 clade A, BG505, stabilised).
T1 construct: also called BG505 UFO trimer; BG505 UFO
As to the kind of experiment: BLI; antibody (20 µg/mL) immobilised on Anti-hIgG-Fc Capture (AHC) biosensors; serially diluted BG505 UFO trimer or V3 peptide as analyte; OCTET Red96. Particulars: both partners purified. (In general: Biolayer interferometry detects binding as a change in optical thickness at a sensor tip.)

The Kd is the equilibrium constant for the complex coming apart.

B1: JT18 (antibody, V domains shown)
VH: EVQLVQSGAEVKRPGESLRISCKTSGYDFTDYWINWVRQMPGKGLEWVGMVYPSDSETAYSPSFRGRVTISADTSISTSYLQWTSLEASDTATYYCARPVSGTFALDVWGRGVLVAVSS
VL: QSVLTQPPSMSGAPGQRVTMSCTGGNSNIGANLYVQWYQQVPGTAPRLLIYEDNQRPSGVSDRFSGSRSGSSASLTITGLQSEDEADYYCQSYDNSLSTVLFGGGTRLTVL
notes: IGHV5-20*02, IGHJ5-2*02, IGHD1-44*02, CDR3 12 aa; constant region added, not specified; IGLV1S1*01, IGLJ3*01, CDR3 11 aa; Recombinant IgG; constant regions not specified (captured on anti-human IgG Fc biosensors, detected with anti-monkey IgG); source: HEK293T, co-transfected linear expression fragments, in supernatant (screen); Expi293F, co-transfected plasmids, purified (protein A agarose)
Molecule B1 returned a Kd of 4.03 nM.
